Tests used:
[1] = molecular target: T1, recombinant extracellular domain (ECD) of human TF, amino acid 1-219 of the mature chain, C-terminal His6-tag (human, UniProt P13726 33-251); test: Biacore
T1 construct: expressed in a mammalian system; used for ELISA and Biacore; biotinylated by NHS-ester for the Fab ELISA; also called His6-TF-ECD1-219; HumanTF1-219

[2] = molecular target: Innovin, lyophilized recombinant human tissue factor combined with phospholipids (human, UniProt P13726 33-295, limits assumed); test: cell-based or functional assay; further: test concentration or dose not given here

| Binder | Kd [1] | koff [1] | kon [1] | T½ Max (seconds), coagulation of human plasma [2] |
| --- | --- | --- | --- | --- |
| M1594 (antibody, V domains shown, complete MAb; FR4 is its own entry; also called H158/L3) VH: EVQLVQSGAEVKKPGESLRISCKGSGYTFPPYWIEWVRQMPGKGLEWMGDILPGTGYTVYSPSFQGHVTISADKSISTAYLQWSSLKASDTAMYYCARSGYYGNSGFAYWGQGTLVTVSS VL: DIVMTQTPLSLPVTPGEPASISCKSSQSLLSSGNQKNYLTWYLQKPGQSPQLLIYWASTRESGVPDRFSGSGSGTDFTLKISRVEAEDVGVYYCQNDYTYPLTFGQGTKLEIK | 0.35 nM | 4.3e-05 s⁻¹ | 124000 M⁻¹ s⁻¹ | 165 s |
| M1642 (antibody, V domains shown, complete MAb; FR4 is its own entry; also called H22/L369) VH: EVQLVQSGAEVKKPGESLRISCKGSGYTFITYWIEWVRQMPGKGLEWMGDILPGSGSTNYSPSFQGHVTISADKSISTAYLQWSSLKASDTAMYYCARSGYYGNSGFAYWGQGTLVTVSS VL: DIVMTQTPLSLPVTPGEPASISCKSSQSLLTSYNQRNYLTWYLQKPGQSPQLLIYWASTRESGVPDRFSGSGSGTDFTLKISRVEAEDVGVYYCQNDLTYPLTFGQGTKLEIK | 0.95 nM |  |  | 166 s |
| M1613 (antibody, V domains shown, complete MAb; FR4 is its own entry; also called H136/L3) VH: EVQLVQSGAEVKKPGESLRISCKGSGYTFSSHWIEWVRQMPGKGLEWMGDILPGSGFTHYSPSFQGHVTISADKSISTAYLKWSSLKASDTAMYYCARSGYYGNSGFAYWGQGTLVTVSS VL: DIVMTQTPLSLPVTPGEPASISCKSSQSLLSSGNQKNYLTWYLQKPGQSPQLLIYWASTRESGVPDRFSGSGSGTDFTLKISRVEAEDVGVYYCQNDYTYPLTFGQGTKLEIK | 0.92 nM | 7e-05 s⁻¹ | 75700 M⁻¹ s⁻¹ | 165 s |
| M1602 (antibody, V domains shown, complete MAb; FR4 is its own entry; also called H106/L3) VH: EVQLVQSGAEVKKPGESLRISCKGSGYTFDAHWIEWVRQMPGKGLEWMGDILPGSGFTDYSPSFQGHVTISADKSISTAYLQWSSLKASDTAMYYCARSGYYGNSGFAYWGQGTLVTVSS VL: DIVMTQTPLSLPVTPGEPASISCKSSQSLLSSGNQKNYLTWYLQKPGQSPQLLIYWASTRESGVPDRFSGSGSGTDFTLKISRVEAEDVGVYYCQNDYTYPLTFGQGTKLEIK | 0.62 nM | 8.2e-05 s⁻¹ | 132000 M⁻¹ s⁻¹ | 163 s |
| M1599 (antibody, V domains shown, complete MAb; FR4 is its own entry; also called H130/L3) VH: EVQLVQSGAEVKKPGESLRISCKGSGYTFGPYWIEWVRQMPGKGLEWMGDILPGTGYTLYSPSFQGHVTISADKSISTAYLQWSSLKASDTAMYYCARSGYYGNSGFAYWGQGTLVTVSS VL: DIVMTQTPLSLPVTPGEPASISCKSSQSLLSSGNQKNYLTWYLQKPGQSPQLLIYWASTRESGVPDRFSGSGSGTDFTLKISRVEAEDVGVYYCQNDYTYPLTFGQGTKLEIK | 0.39 nM | 5.3e-05 s⁻¹ | 138000 M⁻¹ s⁻¹ | 151 s |
| M1640 (antibody, V domains shown, complete MAb; FR4 is its own entry; also called H22/L327) VH: EVQLVQSGAEVKKPGESLRISCKGSGYTFITYWIEWVRQMPGKGLEWMGDILPGSGSTNYSPSFQGHVTISADKSISTAYLQWSSLKASDTAMYYCARSGYYGNSGFAYWGQGTLVTVSS VL: DIVMTQTPLSLPVTPGEPASISCKSSQSLLPSWNQSNYLTWYLQKPGQSPQLLIYWASTRESGVPDRFSGSGSGTDFTLKISRVEAEDVGVYYCQNDFTYPLTFGQGTKLEIK | 0.76 nM |  |  | 168 s |
| M1597 (antibody, V domains shown, complete MAb; FR4 is its own entry; also called H134/L3) VH: EVQLVQSGAEVKKPGESLRISCKGSGYTFSSYWIEWVRQMPGKGLEWMGDILPGTGATHYSPSFQGHVTISADKSISTAYLQWSSLKASDTAMYYCARSGYYGNSGFAYWGQGTLVTVSS VL: DIVMTQTPLSLPVTPGEPASISCKSSQSLLSSGNQKNYLTWYLQKPGQSPQLLIYWASTRESGVPDRFSGSGSGTDFTLKISRVEAEDVGVYYCQNDYTYPLTFGQGTKLEIK | 0.8 nM | 6.6e-05 s⁻¹ | 83400 M⁻¹ s⁻¹ | 157 s |
| M1610 (antibody, V domains shown, complete MAb; FR4 is its own entry; also called H115/L3) VH: EVQLVQSGAEVKKPGESLRISCKGSGYTFAPYWIEWVRQMPGKGLEWMGDIIPGTGYTTYSPSFQGHVTISADKSISTAYLQWSSLKASDTAMYYCARSGYYGNSGFAYWGQGTLVTVSS VL: DIVMTQTPLSLPVTPGEPASISCKSSQSLLSSGNQKNYLTWYLQKPGQSPQLLIYWASTRESGVPDRFSGSGSGTDFTLKISRVEAEDVGVYYCQNDYTYPLTFGQGTKLEIK | 0.54 nM | 0.0001 s⁻¹ | 184000 M⁻¹ s⁻¹ | 164 s |
| M1601 (antibody, V domains shown, complete MAb; FR4 is its own entry; also called H105/L3) VH: EVQLVQSGAEVKKPGESLRISCKGSGYTFGPYWIEWVRQMPGKGLEWMGDILPGTGYTVYSPSFQGHVTISADKSISTAYLQWSSLKASDTAMYYCARSGYYGNSGFAYWGQGTLVTVSS VL: DIVMTQTPLSLPVTPGEPASISCKSSQSLLSSGNQKNYLTWYLQKPGQSPQLLIYWASTRESGVPDRFSGSGSGTDFTLKISRVEAEDVGVYYCQNDYTYPLTFGQGTKLEIK | 0.33 nM | 4.6e-05 s⁻¹ | 137000 M⁻¹ s⁻¹ | 180 s |
| M1595 (antibody, V domains shown, complete MAb; FR4 is its own entry; also called H160/L3) VH: EVQLVQSGAEVKKPGESLRISCKGSGYTFYPYWIEWVRQMPGKGLEWMGDILPGTGFTNYSPSFQGHVTISADKSISTAYLQWSSLKASDTAMYYCARSGYYGNSGFAYWGQGTLVTVSS VL: DIVMTQTPLSLPVTPGEPASISCKSSQSLLSSGNQKNYLTWYLQKPGQSPQLLIYWASTRESGVPDRFSGSGSGTDFTLKISRVEAEDVGVYYCQNDYTYPLTFGQGTKLEIK | 0.39 nM | 6.8e-05 s⁻¹ | 176000 M⁻¹ s⁻¹ | 163 s |
| M1605 (antibody, V domains shown, complete MAb; FR4 is its own entry; also called H168/L3) VH: EVQLVQSGAEVKKPGESLRISCKGSGYTFGTYWIEWVRQMPGKGLEWMGDILPGTGHTTYSPSFQGHVTISADKSISTAYLQWSSLKASDTAMYYCARSGYYGNSGFAYWGQGTLVTVSS VL: DIVMTQTPLSLPVTPGEPASISCKSSQSLLSSGNQKNYLTWYLQKPGQSPQLLIYWASTRESGVPDRFSGSGSGTDFTLKISRVEAEDVGVYYCQNDYTYPLTFGQGTKLEIK | 0.64 nM | 8.6e-05 s⁻¹ | 135000 M⁻¹ s⁻¹ | 160 s |

More lines, in order of falling Kd [1], values ahead:

| Kd [1] | koff [1] | kon [1] | T½ Max (seconds), coagulation of human plasma [2] | Binder |
| --- | --- | --- | --- | --- |
| 0.33 nM | 6.3e-05 s⁻¹ | 192000 M⁻¹ s⁻¹ | 155 s | M1598 (antibody, V domains shown, complete MAb; FR4 is its own entry; also called H137/L3) VH: EVQLVQSGAEVKKPGESLRISCKGSGYTFTPYWIEWVRQMPGKGLEWMGDILPGTGYTVYSPSFQGHVTISADKSISTAYLQWSSLKASDTAMYYCARSGYYGNSGFAYWGQGTLVTVSS VL: DIVMTQTPLSLPVTPGEPASISCKSSQSLLSSGNQKNYLTWYLQKPGQSPQLLIYWASTRESGVPDRFSGSGSGTDFTLKISRVEAEDVGVYYCQNDYTYPLTFGQGTKLEIK |
| 0.33 nM | 4.3e-05 s⁻¹ | 131000 M⁻¹ s⁻¹ | 163 s | M1596 (antibody, V domains shown, complete MAb; FR4 is its own entry; also called H185/L3) VH: EVQLVQSGAEVKKPGESLRISCKGSGYTFTPYWIEWVRQMPGKGLEWMGDILPGSGHTTYSPSFQGHVTISADKSISTAYLQWSSLKASDTAMYYCARSGYYGNSGFAYWGQGTLVTVSS VL: DIVMTQTPLSLPVTPGEPASISCKSSQSLLSSGNQKNYLTWYLQKPGQSPQLLIYWASTRESGVPDRFSGSGSGTDFTLKISRVEAEDVGVYYCQNDYTYPLTFGQGTKLEIK |
| 0.2 nM |  |  | 163 s | M1638 (antibody, V domains shown, complete MAb; FR4 is its own entry; also called H22/L138) VH: EVQLVQSGAEVKKPGESLRISCKGSGYTFITYWIEWVRQMPGKGLEWMGDILPGSGSTNYSPSFQGHVTISADKSISTAYLQWSSLKASDTAMYYCARSGYYGNSGFAYWGQGTLVTVSS VL: DIVMTQTPLSLPVTPGEPASISCKSSQSLLWFVNQKNYLTWYLQKPGQSPQLLIYHASTRESGVPDRFSGSGSGTDFTLKISRVEAEDVGVYYCQNDDSYPLTFGQGTKLEIK |
| 0.18 nM | 2.9e-05 s⁻¹ | 166000 M⁻¹ s⁻¹ | 157 s | M1606 (antibody, V domains shown, complete MAb; FR4 is its own entry; also called H181/L3) VH: EVQLVQSGAEVKKPGESLRISCKGSGYTFIPHWIEWVRQMPGKGLEWMGDILPGSGWTNYSPSFQGHVTISADKSISTAYLQWSSLKASDTAMYYCARSGYYGNSGFAYWGQGTLVTVSS VL: DIVMTQTPLSLPVTPGEPASISCKSSQSLLSSGNQKNYLTWYLQKPGQSPQLLIYWASTRESGVPDRFSGSGSGTDFTLKISRVEAEDVGVYYCQNDYTYPLTFGQGTKLEIK |
| 0.14 nM | 2.2e-05 s⁻¹ | 152000 M⁻¹ s⁻¹ | 165 s | M1604 (antibody, V domains shown, complete MAb; FR4 is its own entry; also called H138/L3) VH: EVQLVQSGAEVKKPGESLRISCKGSGYTFAPYWIEWVRQMPGKGLEWMGDILPGTGYTWYSPSFQGHVTISADKSISTAYLQWSSLKASDTAMYYCARSGYYGNSGFAYWGQGTLVTVSS VL: DIVMTQTPLSLPVTPGEPASISCKSSQSLLSSGNQKNYLTWYLQKPGQSPQLLIYWASTRESGVPDRFSGSGSGTDFTLKISRVEAEDVGVYYCQNDYTYPLTFGQGTKLEIK |
| 0.12 nM |  |  | 162 s | M1641 (antibody, V domains shown, complete MAb; FR4 is its own entry; also called H22/L335) VH: EVQLVQSGAEVKKPGESLRISCKGSGYTFITYWIEWVRQMPGKGLEWMGDILPGSGSTNYSPSFQGHVTISADKSISTAYLQWSSLKASDTAMYYCARSGYYGNSGFAYWGQGTLVTVSS VL: DIVMTQTPLSLPVTPGEPASISCKSSQSLLFSANQRNYLTWYLQKPGQSPQLLIYWASTRDSGVPDRFSGSGSGTDFTLKISRVEAEDVGVYYCQNDDTYPLTFGQGTKLEIK |
| 0.08 nM |  |  | 167 s | M1639 (antibody, V domains shown, complete MAb; FR4 is its own entry; also called H22/L320) VH: EVQLVQSGAEVKKPGESLRISCKGSGYTFITYWIEWVRQMPGKGLEWMGDILPGSGSTNYSPSFQGHVTISADKSISTAYLQWSSLKASDTAMYYCARSGYYGNSGFAYWGQGTLVTVSS VL: DIVMTQTPLSLPVTPGEPASISCKSSQSLLYSGNQRNYLTWYLQKPGQSPQLLIYWASTRSSGVPDRFSGSGSGTDFTLKISRVEAEDVGVYYCQNDDTYPMTFGQGTKLEIK |

From patent US20120237528A1 (Janssen / Centocor, published 2012)
